Reference: patent publication US20080058263A1 (published 2008)
Where a chain is given by its changes, count along the chain named.

T1: VEGFR-3-Fc (UniProt P35916 25-328)
T1 construct: domain: first three Ig domains; conditioned supernatant of 293T cells; also called VEGFR-3-Fc fusion protein; not shown: Fc fragment of the pIg vector
T1 sequence (looked up): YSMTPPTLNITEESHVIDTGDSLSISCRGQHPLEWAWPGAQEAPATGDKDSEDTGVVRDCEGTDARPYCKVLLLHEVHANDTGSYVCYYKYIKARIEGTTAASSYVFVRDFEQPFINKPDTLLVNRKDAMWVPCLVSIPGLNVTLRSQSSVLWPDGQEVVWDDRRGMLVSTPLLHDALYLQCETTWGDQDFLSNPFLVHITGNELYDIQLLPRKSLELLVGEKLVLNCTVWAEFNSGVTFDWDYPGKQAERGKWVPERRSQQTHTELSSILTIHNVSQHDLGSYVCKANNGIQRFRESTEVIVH

B1: 81-9 (ligand)
chain: AHYNTEILKFMDVYQRSYCHPIETLVDIFQEYPDEIEYIFKPSCVPLMRCGGCCNDEGLECVPTEESNITMQIMRITVPLSQGPKPVTISFLQHNKCECRPKKD
B2: 81-11 (ligand)
chain: B1 chain with D56S, E60Q
B3: 81-15 (ligand)
chain: B1 chain with D56S, E60Q, L92A, Q93N, N95T, K96S, E98R, R100M, P101S, K103L
B4: 81-13 (ligand)
chain: B1 chain with L92A, Q93N, N95T, K96S, E98R, R100M, P101S, K103L
B5: 72-1 (ligand)
chain: GQNHHEVVKSIDNEWRKTQCMPREVCIDVGKEFGVATNTFFKPPCVSVYRCGGCCNDEGLECVPTEESNITMQIMRIKPHQGQHIGEMSFLQHNKCECRPKKD
B6: 72-3 (ligand)
chain: B5 chain with D57S, E61Q
B7: 31-1 (ligand)
chain: GQNHHEVVKSIDNEWRKTQCMPIETLVDIFQEYPDEIEYIFKPSCVPLMRCGGCCNDEGLECVPTEESNITMQIMRIKPHQGQHIGEMSFLQHNKCECRPKKD
B8: 24-5 (ligand)
chain: AHYNTEILKSIDNEWRKTQCMPREVCIDVGKEFGVATNTFFKPSCVPLMRCGGCCNDEGLECVPTEESNITMQIMRIKPHQGQHIGEMSFANHTSCRCMSKLD
B9: 22-5 (ligand)
chain: B8 chain with S44P, P47S, L48V, M49Y
B10: 24-7 (ligand)
chain: B8 chain with D57S, E61Q
B11: 52-5 (ligand)
chain: AHYNTEILKSIDNEWRKTQCMPIETLVDIFQEFGVATNTFFKPPCVSVYRCGGCCNDEGLECVPTEESNITMQIMRIKPHQGQHIGEMSFANHTSCRCMSKLD
B12: 23-5 (ligand)
chain: AHYNTEILKSIDNEWRKTQCMPREVCIDVGKEYPDEIEYIFKPPCVSVYRCGGCCNDEGLECVPTEESNITMQIMRIKPHQGQHIGEMSFANHTSCRCMSKLD
B13: 24-1 (ligand)
chain: B8 chain with A91L, N92Q, T94N, S95K, R97E, M99R, S100P, L102K
B14: 22-7 (ligand)
chain: B8 chain with S44P, P47S, L48V, M49Y, D57S, E61Q
B15: 21-7 (ligand)
chain: B12 chain with P44S, S47P, V48L, Y49M, D57S, E61Q
B16: 21-5 (ligand)
chain: B12 chain with P44S, S47P, V48L, Y49M
B17: 24-3 (ligand)
chain: B8 chain with D57S, E61Q, A91L, N92Q, T94N, S95K, R97E, M99R, S100P, L102K
B18: 54-5 (ligand)
chain: B11 chain with P44S, S47P, V48L, Y49M
B19: 13-1 (ligand)
chain: GQNHHEVVKFMDVYQRSYCHPIETLVDIFQEYPDEIEYIFKPPCVSVYRCGGCCNDEGLECVPTEESNITMQIMRIKPHQGQHIGEMSFLQHNKCECRPKKD
B20: 13-5 (ligand)
chain: B19 chain with L90A, Q91N, N93T, K94S, E96R, R98M, P99S, K101L
B21: 13-7 (ligand)
chain: B19 chain with D56S, E60Q, L90A, Q91N, N93T, K94S, E96R, R98M, P99S, K101L
B22: 14-1 (ligand)
chain: GQNHHEVVKFMDVYQRSYCHPIETLVDIFQEFGVATNTFFKPSCVPLMRCGGCCNDEGLECVPTEESNITMQIMRIKPHQGQHIGEMSFLQHNKCECRPKKD
B23: 14-7 (ligand)
chain: B22 chain with D56S, E60Q, L90A, Q91N, N93T, K94S, E96R, R98M, P99S, K101L
B24: 14-5 (ligand)
chain: B22 chain with L90A, Q91N, N93T, K94S, E96R, R98M, P99S, K101L
B25: 14-3 (ligand)
chain: B22 chain with D56S, E60Q
B26: 84-7 (ligand)
chain: AHYNTEILKFMDVYQRSYCHPIETLVDIFQEFGVATNTFFKPSCVPLMRCGGCCNSEGLQCVPTEESNITMQIMRIKPHQGQHIGEMSFANHTSCRCMSKLD
B27: 13-9 (ligand)
chain: GQNHHEVVKFMDVYQRSYCHPIETLVDIFQEYPDEIEYIFKPPCVSVYRCGGCCNDEGLECVPTEESNITMQIMRITVPLSQGPKPVTISFLQHNKCECRPKKD
B28: 13-11 (ligand)
chain: B27 chain with D56S, E60Q
B29: 12-14 (ligand)
chain: GQNHHEVVKFMDVYQRSYCHPIETLVDIFQEFGVATNTFFKPPCVSVYRCGGCCNDEGLECMNTSTSYLSKTLFEITVPLSQGPKPVTISFANHTSCRCMSKLDL
B30: 22-13 (ligand)
chain: AHYNTEILKSIDNEWRKTQCMPREVCIDVGKEFGVATNTFFKPPCVSVYRCGGCCNDEGLECVPTEESNITMQIMRITVPLSQGPKPVTISFANHTSCRCMSKLD
B31: 22-15 (ligand)
chain: B30 chain with D57S, E61Q

What follows are binders tested against T2, VEGFR-1-Fc (UniProt P17948 27-338) (assay: receptor-Fc IP).
T2 construct: domain: first three Ig domains; expressed in Drosophila S2 cells, purified on Protein A sepharose; also called VEGFR-1-Fc fusion protein; not shown: Fc fragment from the Signal-pIgPlus vector
T2 sequence (P17948 27-338): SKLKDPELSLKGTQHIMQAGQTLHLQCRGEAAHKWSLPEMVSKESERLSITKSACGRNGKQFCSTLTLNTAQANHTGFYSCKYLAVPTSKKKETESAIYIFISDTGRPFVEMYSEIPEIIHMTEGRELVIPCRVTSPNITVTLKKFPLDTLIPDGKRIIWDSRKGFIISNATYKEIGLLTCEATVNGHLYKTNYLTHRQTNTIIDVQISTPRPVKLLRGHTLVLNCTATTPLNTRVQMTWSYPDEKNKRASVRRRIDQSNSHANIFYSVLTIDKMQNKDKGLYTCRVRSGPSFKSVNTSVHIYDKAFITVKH
Outline: (§1)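 Binding of ligand from sample supernatant measured by pentahistidine-antibody immunoprecipitation. IP mix: PBS with 1.5% BSA, 0.06% Tween 20, 3 μg/ml heparin and 400 ng/ml fusion protein, added 1:2 to sample supernatant.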
B1: binds.
B2: binds.
B3: binds.
B4: binds.
B5: no binding.
B6: no binding.
B7: no binding.
B8: no binding.
B9: no binding.
B10: no binding.
B11: no binding.
B12: no binding.
B13: no binding.
B14: no binding.
B15: no binding.
B16: no binding.
B17: no binding.
B18: no binding.
B19: binds.
B20: binds.
B21: binds.
B22: binds.
B23: no binding.
B24: binds.
B25: binds.
B26: no binding.
B27: binds.
B28: binds.
B29: no binding.
B30: no binding.
B31: no binding.

These binders were tested against T3, VEGFR-2-Fc (UniProt P35968 20-322) (assay: receptor-Fc IP).
T3 construct: domain: first 3 Ig domains; conditioned supernatant of 293T cells; also called VEGFR-2-Fc fusion protein; not shown: Fc fragment of the pIg vector
T3 sequence (P35968 20-322): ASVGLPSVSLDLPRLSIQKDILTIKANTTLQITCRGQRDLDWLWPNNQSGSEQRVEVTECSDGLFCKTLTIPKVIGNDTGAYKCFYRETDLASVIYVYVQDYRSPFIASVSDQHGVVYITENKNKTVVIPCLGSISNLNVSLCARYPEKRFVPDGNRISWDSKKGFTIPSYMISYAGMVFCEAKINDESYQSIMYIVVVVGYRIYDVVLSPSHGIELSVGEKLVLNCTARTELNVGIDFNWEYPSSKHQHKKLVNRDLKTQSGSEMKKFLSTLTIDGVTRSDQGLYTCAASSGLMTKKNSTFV
Outline: as §1
B1: no binding.
B2: binds.
B3: binds.
B4: no binding.
B5: no binding.
B6: no binding.
B7: no binding.
B8: no binding.
B9: no binding.
B10: no binding.
B11: no binding.
B12: no binding.
B13: no binding.
B14: no binding.
B15: no binding.
B16: no binding.
B17: no binding.
B18: no binding.
B19: binds.
B20: binds.
B21: binds.
B22: no binding.
B23: binds.
B24: no binding.
B25: binds.
B26: no binding.
B27: no binding.
B28: no binding.
B29: no binding.
B30: no binding.
B31: no binding.

These binders were tested against T1, VEGFR-3-Fc (assay: receptor-Fc IP).
Outline: as §1
B1: no binding.
B2: no binding.
B3: no binding.
B4: no binding.
B5: no binding.
B6: no binding.
B7: no binding.
B8: no binding.
B9: no binding.
B10: no binding.
B11: no binding.
B12: no binding.
B13: no binding.
B14: no binding.
B15: no binding.
B16: no binding.
B17: no binding.
B18: no binding.
B19: no binding.
B20: no binding.
B21: no binding.
B22: no binding.
B23: no binding.
B24: no binding.
B25: no binding.
B26: no binding.
B27: no binding.
B28: no binding.
B29: binds.
B30: no binding.
B31: no binding.
